Laboratory results from patent US20160039943A1 (TRANSLATIONAL SCIENCES, published 2016).

B1: native human α2-antiplasmin (other, UniProt P08697 40-491, looked up)
chain: NQEQVSPLTLLKLGNQEPGGQTALKSPPGVCSRDPTPEQTHRLARAMMAFTADLFSLVAQTSTCPNLILSPLSVALALSHLALGAQNHTLQRLQQVLHAGSGPCLPHLLSRLCQDLGPGAFRLAARMYLQKGFPIKEDFLEQSEQLFGAKPVSLTGKQEDDLANINQWVKEATEGKIQEFLSGLPEDTVLLLLNAIHFQGFWRNKFDPSLTQRDSFHLDEQFTVPVEMMQARTYPLRWFLLEQPEIQVAHFPFKNNMSFVVLVPTHFEWNVSQVLANLSWDTLHPPLVWERPTKVRLPKLYLKHQMDLVATLSQLGLQELFQAPDLRGISEQSLVVSGVQHQSTLELSEVGVEAAAATSIAMSRMSLSSFSVNRPFLFFIFEDTTGLPLFVGSVRNPNPSAPRELKEQQDSPGNKDFLQSLKGFPRGDKLFGPDLKLVPPMEEDYPQFGSPK
modifications: radioiodinated (125I) in the binding assays
notes: mature; Bought native protein; also called native human α2-AP; native α2-AP

Experiments:
[1] = biological target: B1; test: k1, rate constant of reversible complex formation, from continuous inhibition kinetics with S-2251
Method: (§1) Native α₂-AP (1.8 μM) was pre-incubated with or without of MAbs (49, 77, Dig-control; 1.8 μM or RWR 1.8 μM and 18 μM) for 60 min at 4° C. The fast inhibition of plasmin, micro-plasmin and trypsin was examined by a continuous method as described (Wiman, B. and Collen, D. On the kinetics of the reaction between human antiplasmin and plasmin. Eur J Biochem 1978; 84: 573-578). The serine protease (20 nM) was added to a cuvette containing S-2251 (500 μM) in 300 μl of TBS buffer, and the change in absorbance at 405 nm was recorded at 0.1-min intervals prior to and after the addition of 10 μl of α₂-AP (1.8 μM) or preformed α₂-AP/MAb complex. The final concentration of α₂-AP in the cuvette was 60 nM. The percentage of residual protease activity was calculated from the initial value (defined as 100%). The inhibition constant (i.e., k₁, the rate constant of reversible complex formation) was determined as described (Turner et al., 2002, J Biol. Chem. 277:33068-33074).

[2] = biological target: T1, human Lys-plasmin (human, UniProt P00747 97-810); test: cell-based or functional assay
[3] = biological target: T1, human Lys-plasmin; test: k1, rate constant of reversible complex formation, from continuous inhibition kinetics with S-2251
Method: as §1

| kon [1] | stoichiometry of inhibition (SI) [2] | kon [3] | Binder |
| --- | --- | --- | --- |
| 33000 M⁻¹ s⁻¹ | – | – | micro-plasmin (enzyme, human, UniProt P00747 562-810, looked up, domain: micro-plasmin; Made as in Reed et al., 1999; also called human micro-plasmin) APSFDCGKPQVEPKKCPGRVVGGCVAHPHSWPWQVSLRTRFGMHFCGGTLISPEWVLTAAHCLEKSPRPSSYKVILGAHQEVNLEPHVQEIEVSRLFLEPTRKDIALLKLSSPAVITDKVIPACLPSPNYVVADRTECFITGWGETQGTFGAGLLKEAQLPVIENKVCNRYEFLNGRVQSTELCAGHLAGGTDSCQGDSGGPLVCFEKDKYILQGVTSWGLGCARPNKPGVYVRVSRFVTWIEGVMRNN |
| 476000 M⁻¹ s⁻¹ | – | – | pork trypsin (enzyme, UniProt P00761 9-231, looked up) IVGGYTCAANSIPYQVSLNSGSHFCGGSLINSQWVVSAAHCYKSRIQVRLGEHNIDVLEGNEQFINAAKIITHPNFNGNTLDNDIMLIKLSSPATLNSRVATVSLPRSCAAAGTECLISGWGNTKSSGSSYPSLLQCLKAPVLSDSSCKSSYPGQITGNMICVGFLEGGKDSCQGDSGGPVVCNGQLQGIVSWGYGCAQKNKPGVYTKVCNYVNWIQQTIAAN |
| – | 1.1 | > 2.6e+06 M⁻¹ s⁻¹ | B1 |
